One block for each binder: values may come before it.
What was measured:
UBE2A [1] = molecular target: UBE2A (UniProt P49459 1-152); assay: ITC; UBR4 construct in the cell (74 μM), UBE2A in the syringe at tenfold higher concentration; 25 °C; 0.4 µl then 13 injections of 3 µl; UBE2A into buffer subtracted; single site binding model; settings: both partners purified
UBE2A [2] = molecular target: T1, UBE2A (UniProt P49459 1-152); assay: as above; settings: both partners purified
T1 construct: also called UBE2A WT; source: E. coli BL21(DE3), purified (glutathione Sepharose 4B or Ni-NTA, SEC); not shown: GST (from the vector pGEX6P-3), N-terminal, cleaved

- Kd (UBE2A [1]): 89.8 µM
B1: UBR4_(4828–5183) (domain or fragment)
chain: EELIEEPGLTCCICREGYKFQPTKVLGIYTFTKRVALEEMENKPRKQQGYSTVSHFNIVHYDCHLAAVRLARGREEWESAALQNANTKCNGLLPVWGPHVPESAFATCLARHNTYLQECTGQREPTYQLNIHDIKLLFLRFAMEQSFSADTGGGGRESNIHLIPYIIHTVLYVLNTTRATSREEKNLQGFLEQPKEKWVESAFEVDGPYYFTVLALHILPPEQWRATRVEILRRLLVTSQARAVAPGGATRLTDKAVKDYSAYRSSLLFWALVDLIYNMFKKVPTSNTEGGWSCSLAEYIRHNDMPIYEAADKALKTFQEEFMPVETFSEFLDVAGLLSEITDPESFLKDLLNSVP
modifications: one Zn2+ bound (Cys4838, Cys4841, His4887, Cys4890). The C-terminal limit 5183 is taken from the Fig. 7 title and legend and the structure section; '4828-5130' in the ITC text is treated as a …

- Kd (UBE2A [2]): 1.19 µM
B2: UBR4_(xtal) (UBR4 residues 4,730–5,183) (domain or fragment)
chain: AIQHPGTQVLIGTDSIPNLHKLEQVSSDEGIGTLAENLLEALREHPDVNKKIDAARRETRAEKKRMAMAMRQKALGTLGMTTNEKGQVVTKTALLKQMEELIEEPGLTCCICREGYKFQPTKVLGIYTFTKRVALEEMENKPRKQQGYSTVSHFNIVHYDCHLAAVRLARGREEWESAALQNANTKCNGLLPVWGPHVPESAFATCLARHNTYLQECTGQREPTYQLNIHDIKLLFLRFAMEQSFSADTGGGGRESNIHLIPYIIHTVLYVLNTTRATSREEKNLQGFLEQPKEKWVESAFEVDGPYYFTVLALHILPPEQWRATRVEILRRLLVTSQARAVAPGGATRLTDKAVKDYSAYRSSLLFWALVDLIYNMFKKVPTSNTEGGWSCSLAEYIRHNDMPIYEAADKALKTFQEEFMPVETFSEFLDVAGLLSEITDPESFLKDLLNSVP
notes: UBR4, human, residues 4,730–5,183 (runs to the native C-terminus); holds the unresolved N-terminal region, the hemiRING zinc finger and the UZI subdomain; The GST tag is said to be cleaved for crystallization and autoubiquitination assays; Cloning strategy is in Supplementary Data 1; also called UBR4_(4730–5183); hemiRING-UZI module construct; source: E. coli BL21(DE3), purified (glutathione …)

- binding result (UBE2A [2]): binds
B3: UBR4_(xtal) Ser4930Arg (domain or fragment)
chain: AIQHPGTQVLIGTDSIPNLHKLEQVSSDEGIGTLAENLLEALREHPDVNKKIDAARRETRAEKKRMAMAMRQKALGTLGMTTNEKGQVVTKTALLKQMEELIEEPGLTCCICREGYKFQPTKVLGIYTFTKRVALEEMENKPRKQQGYSTVSHFNIVHYDCHLAAVRLARGREEWESAALQNANTKCNGLLPVWGPHVPERAFATCLARHNTYLQECTGQREPTYQLNIHDIKLLFLRFAMEQSFSADTGGGGRESNIHLIPYIIHTVLYVLNTTRATSREEKNLQGFLEQPKEKWVESAFEVDGPYYFTVLALHILPPEQWRATRVEILRRLLVTSQARAVAPGGATRLTDKAVKDYSAYRSSLLFWALVDLIYNMFKKVPTSNTEGGWSCSLAEYIRHNDMPIYEAADKALKTFQEEFMPVETFSEFLDVAGLLSEITDPESFLKDLLNSVP
notes: also called UBR4 Ser4930Arg; S4930R; source: E. coli BL21(DE3), purified (glutathione sepharose 4B, SEC)

From article PMC10873205 (Nature Structural & Molecular Biology, 2024)
